Measured values reported in patent US20250073355A1, “CD44-BINDING PEPTIDE REAGENTS AND METHODS” (THE REGENTS OF THE UNIVERSITY OF MICHIGAN, priority 2021, published 2025).
Blank lines part the entries; values can stand above or below the molecule they belong to. No end group written: not given here. IRDye800 = fluorophore linked at C-terminus via GGGSC linker

Key:
[1] = Animal necropsy (histology, hematology); format: in vivo, mice; conditions: 48 hours after systemic administration
Procedure: Whole blood was collected for evaluation of hematology and chemistry. Liver, kidney, heart, lung, spleen, stomach, intestine, and brain were harvested and submitted for routine histology (H&E). All slides were evaluated by a liver pathologist.

[2] = system: human HCC specimens; assay: Peptide validation in human HCC specimens ex vivo (immunofluorescence)
Procedure: A tissue microarray (TMA) of human HCC was generated to investigate specific binding by the CD44 peptide to human HCC. Formalin-fixed, paraffin-embedded (FFPE) sections of human liver were obtained from the archived tissue bank in the Department of Pathology. The specimens were washed 3× in xylene for 3 min, 100% ethanol for 3 min, 95% ethanol for 3 min, 70% ethanol for 3 min, rinsed in H2O for 2 min. Antigen unmasking was performed by boiling the slides in 10 mM sodium citrate buffer with 0.05% Tween at pH 6.0 for 15 min. The slides were cooled to RT, and were washed in H2O 3× for 5 min. Blocking was performed with DAKO protein blocking agent (X0909, DAKO) for 1 hour at RT. The peptides at 1 μM concentration were incubated for 10 min at RT. The sections were washed 3× in PBST for 3 min, and incubated with 400 μL at 1:500 dilution of recombinant anti-CD44 (#ab189524, Abcam) overnight at 4° C. The sections were then washed 3× in PBST for 5 min. A 1:500 dilution of AF488-labeled secondary antibody (goat anti rabbit Alexa Fluor®488) was added to each section and incubated for 1 hour at RT. The secondary antibody solution was removed and washed 3× with PBST for 5 min. The sections were then mounted with ProLong Gold reagent containing DAPI (Invitrogen). The fluorescence images of each specimen were collected using confocal microscopy (SP8, Leica), and the mean fluorescence intensity from each image was measured from 3 boxes with dimensions of 20×20 μm^2 using custom MATLAB software. Regions of saturated image intensities were avoided.

[3] = system: SK-Hep1 cells; assay: Apparent association time constant; set-up: species or system human; conditions: binding to SK-Hep1 cells
[4] = system: SK-Hep1 cells
Procedure: The apparent dissociation constant kd for peptide binding to cells was measured to assess the binding affinity. IRDye800-labeled target peptides were serially diluted in PBS at concentrations of 0, 10, 20, 40, 80, 100, and 200 nM. ˜10^5 SK-Hep1 cells were incubated with the peptides at 4° C. for 1 hour, washed with cold PBS, and the mean fluorescence intensities were measured using flow cytometry. The equilibrium dissociation constant kd=1/ka was calculated by performing a least squares fit of the data to the non-linear equation l=(l0+lmaxka [X])/([…]). l0 and lmax are the initial and maximum fluorescence intensities, corresponding to no peptide and at saturation, respectively, and [X] represents the concentration of the bound peptide. Prism 5.0 software (GraphPad Inc) was used to calculate kd.

[5] = system: orthotopic human HCC xenograft tumors and major organs; assay: Peptide biodistribution in tumor-bearing mice; format: in vivo
Description: The animals were euthanized at peak uptake after intravenous injection of the target and control peptides. Major organs, including heart, spleen, lung, liver, brain, stomach, kidney, intestine, were resected and exposed for white light and fluorescence imaging to measure peptide biodistribution. White light and NIR fluorescence images were collected from the major organs, FIG. 17.

[6] = system: orthotopic human HCC xenograft tumors (SK-Hep1); assay: Photoacoustic imaging of orthotopic human HCC xenograft tumors; conditions: post intravenous injection
Procedure: (§1) Human HCC xenograft tumors were implanted orthotopically in female nude athymic mice. First, ˜5×10^6 SK-Hep1 tumor cells were injected subcutaneously into the hind limb flank. Tumors were then monitored twice a week and allowed to grow to 1-2 cm in diameter for 10-30 days. A small horizontal incision was made below the sternum to expose the liver. The liver was incised with a sharp scalpel horizontally in parallel with the surface of the exposed liver. A piece of the subcutaneous tumor with dimensions of ˜1×1×1 mm^3 was implanted into the incision, and then the site was sealed with absorbable hemostatic material (surgical, Johnson & Johnson). The liver was returned to its original position after confirming hemostasis.
IRDye800-labeled target and control peptides (300 μM in 200 μL PBS) were intravenously injected in mice bearing orthotopical SK-Hep1 tumors. An unlabeled peptide (1.5 mM, 100 μL) was injected 30 min prior to the labeled peptide to compete for binding. ICG (2.46 mg/kg) was injected intravenously as a control. Three-dimensional (3D) images were acquired from 0 to 48 h post injection and reconstructed using PAI tomography system (Nexus 128, Endra) using Iex=774 nm excitation. The photoacoustic signal intensity was measured from the two-dimensional (2D) maximum intensity projection (MIP) images, and the pre-injection images were used for background.
The photoacoustic images were collected to evaluate the time course for peptide uptake, FIG. 14A. […] Indocyanine green (ICG) was also administered (2.46 mg/kg) for comparison.

[7] = system: SK-Hep1 cells; assay: MTT cytotoxicity assay; format: cell-based, human; conditions: up to 200 μg/mL, 24 hours
Procedure: The CD44-binding and control peptides were serially diluted over a range of concentrations and incubated with SK-Hep1 cells seeded in 96-well plates for 24 hours. The media was then removed, and MTT solution (100 μL, 0.5 mg/mL) was added. After 4 hours for incubation, the MTT solution was removed, and 150 μL of DMSO was added to each well to solubilize formazan crystals produced by living cells. Absorbance at Aabs=570 (test) and 630 nm (reference) was measured using a plate reader (VersaMax™ Tunable Microplate Reader). The half-maximum inhibitory concentration (IC50) was measured.
An MTT assay was performed to evaluate the cytotoxicity of CD44 peptides. Peptides were incubated with SK-Hep1 cells in increasing concentrations up to 200 μg/mL for 24 hours.

[8] = Serum stability by analytical RP-HPLC; format: in vitro ADME; conditions: mouse serum, up to 24 hours, read-out: half-life T1/2 in serum (converted)
[9] = system: SK-Hep1 cells (CD44+); assay: Confocal fluorescence microscopy of binding to SK-Hep1 cells; format: cell-based, human
Procedure: The cells were washed with PBS 1× and incubated with 4 μM of either target or control peptide for 3 min. The cells were then washed 3× in PBS, fixed with 4% paraformaldehyde (PFA) for 8 min, washed 3× with PBS then incubated with 2% BSA, 1% goat serum in PBS for 30 min. […] Confocal fluorescence images were collected on Leica SP8 confocal microscope using a 63× oil-immersion objective. Fluorescence intensities were quantified using custom MATLAB (Mathworks) software.

[10] = system: orthotopic SK-Hep1 xenograft tumors; assay: Whole body fluorescence imaging of orthotopic human HCC xenograft tumors; conditions: post intravenous injection
Procedure: as §1

[11] = system: CD44 downstream signaling (pAKT, pErk1/2); assay: Western blot of CD44 downstream cell signaling; format: cell-based, human; conditions: 4 or 300 μM, 15 min, SK-Hep1 cells
Procedure: Western blots were performed to evaluate markers for activation of downstream cell signaling, FIG. 11. SK-Hep1 cells were incubated with either hyaluronan (HA) or peptide to evaluate activation of downstream signalling after binding to CD44. […] of low molecular weight HA (GLR001, R&D Systems) was added for 15 min. Peptides are added at concentrations of 4 and 300 μM for 15 min. Anti-CD44 antibody (#ab189524, Abcam), anti-AKT (#4691, Cell Signaling), anti-phospho-AKT (#9271, Cell Signaling), anti-ERK1/2 (#ab17942, Abcam,), anti-phospho-ERK1/2 (#ab50011, Abcam), and anti-β-Actin (#4967, Cell Signaling Technology) were used per manufacturer's instructions.

[12] = target: T1, CD44 (Homo sapiens, UniProt P16070); assay: Competitive inhibition with unlabeled peptide on SK-Hep1 cells; format: cell-based; conditions: competition
T1 construct: endogenous in cells; host or cells: SK-Hep1 (human HCC cells)
Procedure: (§2) Specific peptide binding to CD44 was further validated using competitive inhibition by adding unlabeled peptide. Approximately […] SK-Hep1 cells were grown to ˜70% confluence on cover glass in triplicate. Unlabeled peptides at concentrations of 0, 10, 20, 40, 80, and 100 μM were incubated with the cells for 30 min at 4° C. The cells were washed with PBS and incubated with 5 μM of the target peptides for another 30 min at 4° C. The cells were washed and fixed with 4% PFA for 8 min. The cells were washed with PBS and mounted with ProLong Gold reagent containing DAPI (Invitrogen).

[13] = target: T2, CD44 (Cluster of differentiation 44) (human, UniProt P16070 21-742); assay: confocal microscopy, SK-Hep1 control siRNA against CD44 knockdown cells
T2 construct: whole, on cells; The target is tied to CD44 by siRNA knockdown in SK-Hep1 cells; also called CD44 on human SK-Hep1 HCC cells

[14] = target: T2, CD44 (Cluster of differentiation 44); assay: confocal microscopy on SK-Hep1 cells
[15] = target: T2, CD44 (Cluster of differentiation 44); assay: competition against 5 µM WKG*-IRDye800 on SK-Hep1 cells; third of five concentrations of unlabeled peptide
Procedure: as §2

[16] = target: T2, CD44 (Cluster of differentiation 44); assay: competition against 5 µM WKG*-IRDye800 on SK-Hep1 cells; second of five concentrations of unlabeled peptide
Procedure: as §2

[17] = target: T2, CD44 (Cluster of differentiation 44); assay: competition against 5 µM WKG*-IRDye800 on SK-Hep1 cells; fourth of five concentrations of unlabeled peptide
Procedure: as §2

[18] = target: T2, CD44 (Cluster of differentiation 44); assay: competition against 5 µM WKG*-IRDye800 on SK-Hep1 cells; first of five concentrations of unlabeled peptide (series 0, 10, 20, 40, 80, 100 µM; which five not stated)
Procedure: as §2

[19] = target: T2, CD44 (Cluster of differentiation 44); assay: competition against 5 µM WKG*-IRDye800 on SK-Hep1 cells; fifth of five concentrations of unlabeled peptide
Procedure: as §2

[20] = target: T2, CD44 (Cluster of differentiation 44); assay: flow cytometry on SK-Hep1 cells, labeled peptide 0-200 nM, 4 °C, 1 hour
Procedure: The apparent dissociation constant kd for peptide binding to cells was measured to assess the binding affinity [31]. IRDye800-labeled target peptides were serially diluted in PBS at concentrations of 0, 10, 20, 40, 80, 100, and 200 nM. ˜10⁵ SK-Hep1 cells were incubated with the peptides at 4° C. for 1 hour, washed with cold PBS, and the mean fluorescence intensities were measured using flow cytometry. The equilibrium dissociation constant kd=1/kₐ was calculated by performing a least squares fit of the data to the non-linear equation l=(l₀+lₘₐₓkₐ [X])/(l₀+kₐ[X]). l₀ and lₘₐₓ are the initial and maximum fluorescence intensities, corresponding to no peptide and at saturation, respectively, and [X] represents the concentration of the bound peptide. Prism 5.0 software (GraphPad Inc) was used to calculate kd.

[21] = 1 μM peptide, 10 min, FFPE human sections

T2 sequence (P16070 21-742): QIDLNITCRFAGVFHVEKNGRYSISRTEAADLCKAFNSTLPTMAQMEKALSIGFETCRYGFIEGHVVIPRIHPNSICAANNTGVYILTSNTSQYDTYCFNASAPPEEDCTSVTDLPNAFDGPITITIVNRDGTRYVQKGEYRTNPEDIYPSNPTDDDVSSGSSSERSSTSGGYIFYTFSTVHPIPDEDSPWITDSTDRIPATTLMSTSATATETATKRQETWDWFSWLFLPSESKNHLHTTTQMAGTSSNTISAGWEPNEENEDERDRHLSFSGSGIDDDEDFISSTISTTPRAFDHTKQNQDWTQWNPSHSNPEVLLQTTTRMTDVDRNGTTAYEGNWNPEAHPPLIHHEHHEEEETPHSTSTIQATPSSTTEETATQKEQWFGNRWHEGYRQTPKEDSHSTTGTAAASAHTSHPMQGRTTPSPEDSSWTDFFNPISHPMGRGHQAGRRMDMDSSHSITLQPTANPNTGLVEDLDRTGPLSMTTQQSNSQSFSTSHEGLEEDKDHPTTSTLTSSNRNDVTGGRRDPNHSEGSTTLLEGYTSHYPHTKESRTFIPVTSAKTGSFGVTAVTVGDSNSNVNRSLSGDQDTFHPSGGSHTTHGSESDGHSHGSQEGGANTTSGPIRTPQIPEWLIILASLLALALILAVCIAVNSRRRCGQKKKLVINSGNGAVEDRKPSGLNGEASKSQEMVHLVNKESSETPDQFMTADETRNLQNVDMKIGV
T1 sequence (P16070 21-742): as above

Molecule: CC(C)C[C@H](NC(=O)[C@H](Cc1ccc(O)cc1)NC(=O)[C@H](CO)NC(=O)[C@H](Cc1c[nH]c2ccccc12)NC(=O)CNC(=O)[C@H](CCCCN)NC(=O)[C@@H](N)Cc1c[nH]c2ccccc12)C(=O)N[C@@H](Cc1c[nH]c2ccccc12)C(=O)N[C@H](C(=O)N[C@@H](CCC(N)=O)C(=O)N[C@@H](CCC(N)=O)C(=O)N[C@@H](C)C(=O)NCC(=O)NCC(=O)NCC(=O)N[C@@H](CO)C(=O)N[C@@H](CSC1CC(=O)N(CCNC(=O)CCCCCN2C(=CC=C3CCCC(C=CC4=[N+](CCCCS(=O)(=O)[O-])c5ccc(S(=O)(=O)O)cc5C4(C)C)=C3Oc3ccc(S(=O)(=O)O)cc3)C(C)(C)c3cc(S(=O)(=O)O)ccc32)C1=O)C(N)=O)[C@@H](C)O (stereo partly shown) [WKG*-IRDye800]
- acute toxicity, hematology and chemistry ([1]; n=3 mice): No acute peptide toxicity was observed
- toxicity on histology (H&E) of vital organs ([1]; normal healthy mice): No signs of toxicity
- fluorescence intensity, HCC (mean±SD) [2, 21]: 1.47±0.50
- fluorescence intensity, adenoma (mean±SD) [2, 21]: 0.93±0.35
- fluorescence intensity, cirrhosis (mean±SD) [2, 21]: 0.67±0.34
- fluorescence intensity, normal human liver (mean±SD) [2, 21]: 0.56±0.21
- binding to the cell surface of HCC, immunofluorescence ([2]; human HCC sections): strong binding
- apparent association time constant (time) [3]: 6.8 min
- apparent association time constant k [3]: 0.26 min⁻¹
- improved binding affinity by comparison with previously reported CD44 peptides [4]: 3 fold
- Kd ([4]; read-out: apparent dissociation constant kd, SK-Hep1 cells, 4° C., 1 hour, flow cytometry): 43 nM
- intensity in adjacent normal liver region (mean±SD) ([5]; […] after intravenous injection): 0.92±0.45
- route of clearance ([5]; mouse, in vivo): primarily renal clearance
- time of return to baseline, photoacoustic [6]: ~24 h
- effect on cell viability (MTT) [7]: no effect on cell viability until the highest concentrations were reached
- half-life [8]: 5.1 h
- fluorescence intensity for binding to SK-Hep1 cells compared with Hep 3B cells ([9]; SK-Hep1 (CD44+) vs Hep 3B (CD44−)): Significantly greater
- Pearson correlation coefficient ρ of binding co-localization with anti-CD44-AF488 ([9]; merged image, SK-Hep1 cell surface): 0.81
- time of return to baseline, whole body fluorescence [10]: ~24 h
- effect on CD44 downstream signaling (phosphorylation of AKT and Erk1/2) [11]: no effect

- change of WKG*-IRDye800 fluorescence intensities with increasing concentrations of unlabeled peptide [12]: decreased significantly
Molecule: WKGWSYLWTQQA [WKG*]

- fold change in fluorescence intensity, siCL relative to siCD441 [13]: 4.1 fold
- fold change in fluorescence intensity, siCL relative to siCD442 [13]: 3.3 fold
- fold change in fluorescence intensity, siCL relative to siCD443 [13]: 3.1 fold
- fold change in fluorescence intensity relative to WYK*-IRDye800 (control) [14]: 5.61 fold
Molecule: rabbit anti-CD44 antibody (EPR18668, Abcam)

- fold change of fluorescence intensity relative to an equal concentration of WYK* [15]: 0.36 fold
- fold change of fluorescence intensity relative to an equal concentration of WYK* [16]: 0.61 fold
- fold change of fluorescence intensity relative to an equal concentration of WYK* [17]: 0.12 fold
- fold change of fluorescence intensity relative to an equal concentration of WYK* [18]: 1.02 fold
- fold change of fluorescence intensity relative to an equal concentration of WYK* [19]: 0.1 fold
B1: unlabeled WKG* (peptide)
peptide: WKGWSYLWTQQA
modifications: also: may carry GGGSC linker and C-terminal amide
notes: The m/z of 1913.87 printed for WKG* fits the 12-mer plus GGGSC with a C-terminal amide; also called unlabeled peptide

- Kd [20]: 43 nM
B2: WKG*-IRDye800 (peptide)
peptide: WKGWSYLWTQQAGGGSC-IRDye800
notes: Synthetic L-amino acid peptide made by Fmoc solid-phase synthesis on rink amide MBHA resin; also called CD44-directed peptide
